Data from patent publication US8835467B2, “SIR2 regulation” (Albert Einstein College of Medicine of Yeshiva University, priority 2003, dated 2014).

Substrate: NC(=O)c1cccnc1
Assay: purified protein, by the assay type
Assay type: biochemical
Details: other: mouse enzyme; saturating NAD+ and peptide; pH 7.8
Experimental: After 2 hours, aliquots of 10 μL removed at 0, 30, 60, 90 and 120 min. Each aliquot was combined with 50 μL 50 mM ammonium acetate pH 5.0 to quench and assayed by HPLC for deacetylation products and NAD^+. The chromatograms (260 nm) were obtained using 50 mM ammonium acetate pH 5.0 as eluant on a semi-preparative Waters C-18 column (2.0 mL/min flow rate). Peaks for ADPR and 3′-O-Acetyl-ADPR were quantified by integration. The peak for NAD^+ was collected and radiation counted.

B1: Mouse SIR2 enzyme (SIR2α) (Mus musculus) (protein)
chain: MADEVALALQAAGSPSAAAAMEAASQPADEPLRKRPRRDGPGLGRSPGEPSAAVAPAAAGCEAASAAAPAALWREAAGAAASAEREAPATAVAGDGDNGSGLRREPRAADDFDDDEGEEEDEAAAAAAAAAIGYRDNLLLTDGLLTNGFHSCESDDDDRTSHASSSDWTPRPRIGPYTFVQQHLMIGTDPRTILKDLLPETIPPPELDDMTLWQIVINILSEPPKRKKRKDINTIEDAVKLLQECKKIIVLTGAGVSVSCGIPDFRSRDGIYARLAVDFPDLPDPQAMFDIEYFRKDPRPFFKFAKEIYPGQFQPSLCHKFIALSDKEGKLLRNYTQNIDTLEQVAGIQRILQCHGSFATASCLICKYKVDCEAVRGDIFNQVVPRCPRCPADEPLAIMKPEIVFFGENLPEQFHRAMKYDKDEVDLLIVIGSSLKVRPVALIPSSIPHEVPQILINREPLPHLHFDVELLGDCDVIINELCHRLGGEYAKLCCNPVKLSEITEKPPRPQKELVHLSELPPTPLHISEDSSSPERTVPQDSSVIATLVDQATNNNVNDLEVSESSCVEEKPQEVQTSRNVENINVENPDFKAVGSSTADKNERTSVAETVRKCWPNRLAKEQISKRLEGNQYLFVPPNRYIFHGAEVYSDSEDDVLSSSSCGSNSDSGTCQSPSLEEPLEDESEIEEFYNGLEDDTERPECAGGSGFGADGGDQEVVNEAIATRQELTDVNYPSDKS
notes: purchased Upstate Group
In the case of B1, the Km is reported as 127 µM.
